Legend:
[1] = molecular target: hemagglutinin H3 A/Perth/16/2009 (influenza A virus H3); test: Biolayer Interferometry (ForteBio Octet), kinetic analysis, apparent affinity
[2] = molecular target: hemagglutinin of H3N2 Hong Kong/68 (influenza A virus H3N2); test: as above

C05 CDR1 variant Y31L (antibody)
Kd [1]: 560 nM | Kd [2]: 1400 nM

C05 CDR1 variant G27c-A (antibody)
Kd [1]: 33 nM | Kd [2]: 450 nM

C05 CDR1 variant del(FGEST) (antibody)
Kd [1]: 1300 nM | Kd [2]: 690 nM

C05 CDR1 variant Y31F (antibody)
Kd [1]: 6.8 nM | Kd [2]: 420 nM

C05 CDR1 variant E27d-A (antibody)
Kd [1]: 28 nM | Kd [2]: 540 nM

C05 CDR1 variant F27b-A (antibody)
Kd [1]: 460 nM | Kd [2]: 610 nM

C05 CDR1 variant Y31A (antibody)
Kd [1]: 550 nM | Kd [2]: 640 nM

— US20140199682A1
